Assay results as given in patent US6391305B1, “Conjugates useful in the treatment of prostate cancer” (priority 1999, dated 2002).
“And” between values parts separate entries of the source, which are not always exact repeats. Equal entries are not always repeated. Marks after values point to notes of the source that are not given here. Non-standard residues stand in square brackets, D forms with d. Residues, ends and D or L forms follow the SMILES beside them. Primed or numbered codes have the meaning given here. No end group written: not given here. *: point of attachment. PEG(1) = polyethylene glycol containing substituent with 1 ethyleneoxy subunit; Decanoyl(3,6,9-trioxa) = COCCOCCOCC(=O)*; Glyceroyl(2S) = O=C([C@@H](O)CO)*; hArg = N=C(N)NCCCC[C@H](N)C(=O)O; 3Pal = N[C@@H](Cc1cccnc1)C(=O)O; Cha = N[C@@H](CC1CCCCC1)C(=O)O; Chg = N[C@H](C(=O)O)C1CCCCC1; Nle = CCCC[C@H](N)C(=O)O; PEG(16) = PEG(16): -; PEG(17) = PEG(17): -; Glycolyl = O=C(CO)*

target: T1, enzymatically active free PSA (Homo sapiens, UniProt P07288); format: biochemical; conditions: oligopeptide; 4 hours
T1 construct: required for 50% cleavage of the noted oligopeptides with enzymatically active free PSA
T1 sequence (P07288 25-261): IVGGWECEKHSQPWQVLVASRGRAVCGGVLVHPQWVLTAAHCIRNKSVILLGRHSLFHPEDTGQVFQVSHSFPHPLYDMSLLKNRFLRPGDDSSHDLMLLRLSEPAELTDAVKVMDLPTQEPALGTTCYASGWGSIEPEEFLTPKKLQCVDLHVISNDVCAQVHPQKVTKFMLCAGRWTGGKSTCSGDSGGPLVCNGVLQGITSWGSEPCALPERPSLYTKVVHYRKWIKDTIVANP
Procedure: All other oligopeptides were tested as neutral compounds.

Compound | Substrate cleavage by York PSA at 4 HOUR [HOUR = 8%]
ShRChgQ-SL-acid: oligopeptide without N-terminal blocking group, Example 1 (S[hArg][Chg]QSL-OH) | 4

same assay, conditions: oligopeptide; PSA digestion buffer pH8.0; molar ratio to PSA 100 to 1

Compound | Time to 50% Substrate Cleavage by York PSA
(l)2,3-dihydroxypropionyl-SSSChgQ-SL-acid: blocked oligopeptide with PSA cleavage site, Example 1 ({Glyceroyl(2S)}-SSS[Chg]QSL-OH) | 80 min and 110 min
2,3-dihydroxypropionyl-GSSChgQ-SL-acid: blocked oligopeptide with PSA cleavage site, Example 1 ({2,3‑dihydroxypropionyl}-GSS[Chg]QSL-OH) | 160 min
Ac-ANKASYQ-SL-acid: blocked oligopeptide with PSA cleavage site, Example 1 (chain 1 Ac-ANKASYQSL-OH; chain 2 Ac-ANKASYQSL-OH) | 135 min and 220 min
2,3-dihydroxypropionyl-SSSChgQ-SL-acid: blocked oligopeptide with PSA cleavage site, Example 1 ({2,3‑dihydroxypropionyl}-SSS[Chg]QSL-OH) | 120 min
2-hydroxyacetyl-ShRChgQ-SL-acid: blocked oligopeptide with PSA cleavage site, Example 1 (Glycolyl-S[hArg][Chg]QSL-OH) | 120 min
PEG(17)-ShRYQ-SL-acid: blocked oligopeptide with PSA cleavage site, Example 1 ({PEG(17)}-S[hArg]YQSL-OH) | 55 min
(l)2,3-dihydroxypropionyl-3PAL-SSChgQ-SL-acid: blocked oligopeptide with PSA cleavage site, Example 1 ({Glyceroyl(2S)}-[3Pal]SS[Chg]QSL-OH; SMILES CC(C)C[C@H](NC(=O)[C@H](CO)NC(=O)[C@H](CCC(N)=O)NC(=O)[C@@H](NC(=O)[C@H](CO)NC(=O)[C@H](CO)NC(=O)[C@H](Cc1cccnc1)NC(=O)[C@@H](O)CO)C1CCCCC1)C(=O)O) | 70 min
2-hydroxyacetyl-hRASChgQ-SL-acid: blocked oligopeptide with PSA cleavage site, Example 1 (Glycolyl-[hArg]AS[Chg]QSL-OH; SMILES CC(C)C[C@H](NC(=O)[C@H](CO)NC(=O)[C@H](CCC(N)=O)NC(=O)[C@@H](NC(=O)[C@H](CO)NC(=O)[C@H](C)NC(=O)[C@H](CCCCNC(=N)N)NC(=O)CO)C1CCCCC1)C(=O)O) | 70 min
AchRSSChgQ-SL-acid: blocked oligopeptide with PSA cleavage site, Example 1 (Ac-[hArg]SS[Chg]QSL-OH) | 120 min
(d)2,3-dihydroxypropionyl-3PAL-SSChgQSL-acid: blocked oligopeptide with PSA cleavage site, Example 1 ({(d)‑2,3‑dihydroxypropionyl}-[3Pal]SS[Chg]QSL-OH) | 80 min
PEG(2)-S-hRChgQ-SL-acid: blocked oligopeptide with PSA cleavage site, Example 1 ({Decanoyl(3,6,9-trioxa)}-S[hArg][Chg]QSL-OH) | 30 min
2,3-dihydroxypropionyl-ShRChgQ-SL-acid: blocked oligopeptide with PSA cleavage site, Example 1 ({2,3‑dihydroxypropionyl}-S[hArg][Chg]QSL-OH) | 75 min
PEG(18)ShRYQ-SL-acid: blocked oligopeptide with PSA cleavage site, Example 1 ({PEG(18)}-S[hArg]YQSL-OH) | 40 min
PEG(14)ShRYQ-SL-acid: blocked oligopeptide with PSA cleavage site, Example 1 ({PEG(14)}-S[hArg]YQSL-OH) | 40 min
2-hydroxyacetyl-hRSSYQ-SNle-acid: blocked oligopeptide with PSA cleavage site, Example 1 (Glycolyl-[hArg]SSYQS[Nle]-OH) | 45 min
PEG(1)-hRSSChgQ-SL-acid: blocked oligopeptide with PSA cleavage site, Example 1 ({PEG(1)}-[hArg]SS[Chg]QSL-OH) | 30 min
PEG(19)ShRYQ-SL-acid: blocked oligopeptide with PSA cleavage site, Example 1 ({PEG(19)}-S[hArg]YQSL-OH) | 60 min
Ac-hRASChgQ-SL-acid: blocked oligopeptide with PSA cleavage site, Example 1 (Ac-[hArg]AS[Chg]QSL-OH; SMILES CC(=O)N[C@@H](CCCCNC(=N)N)C(=O)N[C@@H](C)C(=O)N[C@@H](CO)C(=O)N[C@H](C(=O)N[C@@H](CCC(N)=O)C(=O)N[C@@H](CO)C(=O)N[C@@H](CC(C)C)C(=O)O)C1CCCCC1) | 50 min
2,3-dihydroxypropionyl-hSSSChgQ-SL-acid: blocked oligopeptide with PSA cleavage site, Example 1 ({2,3‑dihydroxypropionyl}-[hS]SS[Chg]QSL-OH) | 160 min
2,3-dihydroxypropionyl-ShRYQ-SL-acid: blocked oligopeptide with PSA cleavage site, Example 1 ({2,3‑dihydroxypropionyl}-S[hArg]YQSL-OH) | 35 min and 50 min
2-hydroxyacetyl-SSChgQ-SL-acid: blocked oligopeptide with PSA cleavage site, Example 1 (Glycolyl-SS[Chg]QSL-OH) | 180 min
(OH-Ac)SSSChgQ-SL-acid: 2-hydroxyacetyl blocked oligopeptide with PSA cleavage site, Example 1; blocked peptide of Example 3 Step B (Glycolyl-SSS[Chg]QSL-OH) | 120 min
PEG(16)-ShRYQ-SL-acid: blocked oligopeptide with PSA cleavage site, Example 1 ({PEG(16)}-S[hArg]YQSL-OH) | 40 min
PEG(1)-ShRYQ-SL-acid: blocked oligopeptide with PSA cleavage site, Example 1 ({PEG(1)}-S[hArg]YQSL-OH) | 90 min
2,3-dihydroxypropionyl-hRSSChgQ-SL-acid: blocked oligopeptide with PSA cleavage site, Example 1 | 50 min

same assay, conditions: oligopeptide; asterisk not explained in Table 2

Compound | Time to 50% Substrate Cleavage by York PSA (Min), values marked *
2(S)-2,3-dihydroxy-propionyl ShRChgQSL-acid: blocked oligopeptide with PSA cleavage site, Example 1 ({2(S)‑2,3‑dihydroxypropionyl}-S[hArg][Chg]QSL-OH) | 35* Min
2(S)2,3-dihydroxypropionyl-hRSSChgQ-SL-acid: blocked oligopeptide with PSA cleavage site, Example 1 ({2(S)‑2,3‑dihydroxypropionyl}-[hArg]SS[Chg]QSL-OH) | 25* Min
2-hydroxyacetyl-ShRChgQ-SL-acid: blocked oligopeptide with PSA cleavage site, Example 1 (Glycolyl-S[hArg][Chg]QSL-OH) | 30 min
PEG(2)-ShRYQ-SL-acid: blocked oligopeptide with PSA cleavage site, Example 1 ({Decanoyl(3,6,9-trioxa)}-S[hArg]YQSL-OH) | 35* Min
AchRSSChgQ-SL-acid: blocked oligopeptide with PSA cleavage site, Example 1 (Ac-[hArg]SS[Chg]QSL-OH) | 45 min
2-hydroxyacetylhRYQ-SL-acid: blocked oligopeptide with PSA cleavage site, Example 1 (Glycolyl-[hArg]YQSL-OH; SMILES CC(C)C[C@H](NC(=O)[C@H](CO)NC(=O)[C@H](CCC(N)=O)NC(=O)[C@H](Cc1ccc(O)cc1)NC(=O)[C@H](CCCCNC(=N)N)NC(=O)CO)C(=O)O) | 105* Min
PEG(1)-ShRChgQ-SL-acid: blocked oligopeptide with PSA cleavage site, Example 1 ({PEG(1)}-S[hArg][Chg]QSL-OH) | 120* Min
PEG(2)-hRSSChgQ-SL-acid: blocked oligopeptide with PSA cleavage site, Example 1 ({Decanoyl(3,6,9-trioxa)}-[hArg]SS[Chg]QSL-OH) | 40* Min

same assay, conditions: psa digestion buffer, pH 8

Compound | Time to 50% Substrate Cleavage by York PSA [min]
CC(C)C[C@H](NC(=O)[C@H](CO)NC(=O)[C@H](CCC(N)=O)NC(=O)[C@H](Cc1ccc(O)cc1)NC(=O)[C@H](CO)NC(=O)[C@H](CO)NC(=O)[C@H](CCCCNC(=N)N)NC(=O)CO)C(=O)O [2-hydroxyacetyl-hRSSYQ-SL-acid] (Glycolyl-[hArg]SSYQSL-OH) | 35
CCCC[C@H](NC(=O)[C@H](CO)NC(=O)[C@H](CCC(N)=O)NC(=O)[C@H](Cc1ccc(O)cc1)NC(=O)[C@H](CCCCNC(=N)N)NC(=O)[C@H](CO)NC(C)=O)C(=O)O [Ac-ShRYQ-SNle-acid] (Ac-S[hArg]YQS[Nle]-OH) | 25
CCCC[C@H](NC(=O)[C@H](CO)NC(=O)[C@H](CCC(N)=O)NC(=O)[C@H](CC1CCCCC1)NC(=O)[C@H](CCCCNC(=N)N)NC(C)=O)C(=O)O [Ac-hR(CHA)Q-SNle-acid] (Ac-[hArg][Cha]QS[Nle]-OH) | 200
CCCC[C@H](NC(=O)[C@H](CO)NC(=O)[C@H](CCC(N)=O)NC(=O)[C@H](Cc1ccc(O)cc1)NC(=O)[C@H](CO)NC(=O)[C@H](CO)NC(=O)[C@H](CCCCNC(=N)N)NC(C)=O)C(=O)O [Ac-hRSSYQ-SNle-acid] (Ac-[hArg]SSYQS[Nle]-OH) | 25
